In patent US20100239579A1:

Target: human SIRPα (signal regulatory protein alpha), full-length (human) (UniProt P78324)
Assay: cell-based or functional assay

Sequence of human SIRPα (signal regulatory protein alpha), full-length (human) (P78324 31-504): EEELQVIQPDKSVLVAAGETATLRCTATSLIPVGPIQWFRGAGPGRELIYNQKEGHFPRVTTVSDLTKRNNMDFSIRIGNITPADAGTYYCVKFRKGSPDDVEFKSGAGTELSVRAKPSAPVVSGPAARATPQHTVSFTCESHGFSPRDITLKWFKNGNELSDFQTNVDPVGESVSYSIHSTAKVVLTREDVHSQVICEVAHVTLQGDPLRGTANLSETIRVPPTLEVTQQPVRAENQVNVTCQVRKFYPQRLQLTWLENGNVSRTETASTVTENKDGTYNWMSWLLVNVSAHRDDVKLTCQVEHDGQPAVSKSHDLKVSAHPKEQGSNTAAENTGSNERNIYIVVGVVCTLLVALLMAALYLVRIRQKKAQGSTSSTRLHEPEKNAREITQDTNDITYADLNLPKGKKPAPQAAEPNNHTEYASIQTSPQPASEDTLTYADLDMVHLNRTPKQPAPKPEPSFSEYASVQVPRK

For “hCD47-hFc (human CD47 extracellular Ig-V domain fused to the Fc region of human IgG1), Example 8 (from UniProt Q08722 19-142) (Fc fusion)”, the inhibition of FSL-1 mediated TNF-α production of human DCs by hCD47-hFc immobilized on anti-human Fc coated plates was 78 ng/mL and the inhibition of SAC-induced IL-23 secretion in human DCs was 11 ng/mL.
